This data set is described as follows: collision cross section of unmodified peptide (TIMS, N2, iRT-aligned); higher = larger / more extended gas-phase ion. The method, boiled down:
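Values are averages of 1–3 technical replicates of the most abundant feature for each charge state. Collision cross section was obtained from the Mason-Schamp equation after 1/K0 calibration with three reference ions and run-wise alignment to the median iRT peptide deviation. Synthetic peptide pools (iRT standard spiked 1:40) were separated on a 120-min nanoflow C18 gradient at 60 °C, analysed on a timsTOF Pro/HT (dda-PASEF, nitrogen, ~2.4 mbar) and identified with MaxQuant.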

± gives the standard deviation.

In turn, GRGGAESHTFK had a collision cross section (charge state: 2) of 353.4 ± 0.58 Å² and a collision cross section (charge state: 3) of 440.9 ± 5.6 Å².
The like results for GRGGPGPAQR were, in that order, 323.16 ± 0.71 Å² and 428.92 ± 5.9 Å².
The sequence GRGLPGPAESLR returned a collision cross section (charge state: 2) of 364.16 ± 0.25 Å² and a collision cross section (charge state: 3) of 446.18 ± 17 Å².
In the same order, the values of GRGTGEAEEEYVGPR are 410.08 ± 0.96 Å² and 491.56 ± 0.9 Å².
The like results for GRGTSQLAEGATAK were, in that order, 389.78 ± 0.35 Å² and 463.88 ± 3.2 Å².
In the same order, the values of GRGVGSPEPGPTAPYLGR are 432.42 Å² and 517.8 ± 0.62 Å².
In turn, GRGVGSPEPGPTAPYLGRR gave a collision cross section (charge state: 3) of 516.55 Å².
For the sequence GRGYFEHR, the collision cross section runs as follows: (charge state: 2) 340.02 ± 0.52 Å²; (charge state: 3) 409.47 ± 5.3 Å².
Sequence GSAPPGPVPEGSIR returned a collision cross section (charge state: 2) of 377.29 ± 0.67 Å².
GSELQNYFTK: the collision cross section (charge state: 2) turned out to be 364.76 ± 0.54 Å².
On to GSGLGARGSSYGVTSTESYK, for which the collision cross section runs as follows: (charge state: 2) 471.67 Å²; (charge state: 3) 515.78 ± 1.1 Å².
For the setting “charge state: 3”, GSHGQTPSPGALPLGR displayed a collision cross section of 463.73 ± 0.22 Å².
For the sequence GSIGFPGFPGANGEKGGR, the collision cross section (charge state: 3) is reported as 519.37 ± 1.2 Å².
GSLEKGSPEDK registered a collision cross section (charge state: 2) of 350.53 ± 1.5 Å² and a collision cross section (charge state: 3) of 434.36 ± 3.6 Å².
GSLGAQKLANTCFNEIEK yielded a collision cross section (charge state: 2) of 483.18 ± 2.7 Å² and a collision cross section (charge state: 3) of 511.29 ± 4.4 Å².
Take GSRGFPGEK: the collision cross section (charge state: 2) was 330.16 ± 0.23 Å².
With GSYLGGYSAGRGIYSR, the collision cross section is, setting by setting: (charge state: 2) 455.17 Å²; (charge state: 3) 483.36 ± 2.1 Å².
In the same order, the values of GTGRGGGGGGGGGAPR are 356.62 Å² and 435.15 ± 5.4 Å².
With GTISAPGKVVTAAAQAK, the collision cross section by setting is: (charge state: 2) 464.56 ± 3.2 Å²; (charge state: 3) 518.69 ± 4.3 Å².
In the same order, the values of GTITVSAQELKDNR are 437.3 ± 1.6 Å² and 507.47 ± 4.6 Å².
Sequence GTPGKPGPR gave a collision cross section (charge state: 2) of 311.01 ± 0.77 Å².
On to GTVPDDAVEALADSLGKK, for which the collision cross section reads like this: (charge state: 2) 478 ± 3.1 Å²; (charge state: 3) 520.87 ± 1.8 Å².
With GVEAVGSYAENQR, the collision cross section stood at 378.71 ± 0.16 Å² (charge state: 2) and 463.38 ± 1.1 Å² (charge state: 3).
For GVPRGVHLGSQGLQR, the collision cross section turned out to be 424.25 Å² (charge state: 2) and 484.7 ± 1.8 Å² (charge state: 3).
Consider GVQYLNEIK, for which, under “charge state: 2”, the collision cross section turned out to be 351.72 ± 0.74 Å².
On to GYDVIAQAQSGTGK, for which the collision cross section (charge state: 2) stood at 388.46 ± 0.16 Å².
The sequence GYGVIFANGNR registered a collision cross section (charge state: 2) of 361.55 ± 0.6 Å².
GYLGPEQLPDCLK gave a collision cross section (charge state: 2) of 401.23 ± 0.16 Å².
Turning to HELQANCYEEVKDR, the collision cross section (charge state: 2) is reported as 443.76 ± 2.4 Å² and the collision cross section (charge state: 3) worked out at 527.87 ± 1.3 Å².
Sequence HFGPVPPSQGRGR yielded a collision cross section (charge state: 3) of 493.79 ± 0.89 Å².
In turn, HGGSGGRGVSVSSAR gave a collision cross section (charge state: 3) of 479.93 ± 1.3 Å².
For the sequence HGVYNPNK, the collision cross section (charge state: 2) is given as 330.7 ± 0.79 Å².
HHAAYVNNLNVTEEK: the collision cross section is, setting by setting: (charge state: 2) 444.13 ± 2.1 Å²; (charge state: 3) 494.31 ± 0.87 Å².
HHTLRQAPQPQSSLQR yielded a collision cross section (charge state: 3) of 502.65 ± 0.69 Å².
Take HIGFVYHPTK: the collision cross section is given as 378.19 ± 1.1 Å² (charge state: 2) and 450.25 ± 1.7 Å² (charge state: 3).
In the same order, the values of HLRGHGPQPPLR are 396.64 Å² and 492.83 ± 0.94 Å².
Under “charge state: 3”, HSPTLPEPGGLRLELPLSR registered a collision cross section of 583.19 Å².
For the sequence HTLLRAPAPELLPANVAGR, the collision cross section (charge state: 3) stood at 530.02 ± 1.9 Å².
For HVSPVTPPR, the collision cross section (charge state: 2) stood at 327.76 ± 0.64 Å².
For the sequence IDLPAENSNSETIIITGKR, the collision cross section was 488.02 Å² (charge state: 2) and 565.88 ± 0.52 Å² (charge state: 3).
In the same order, the values of IEDEQALGSQLQK are 401.79 ± 0.14 Å² and 493.77 ± 0.29 Å².
Under “charge state: 2”, IFDSEEILAGYK had a collision cross section of 391.02 ± 0.47 Å².
Turning to IGAEVYHHLK, the collision cross section is, setting by setting: (charge state: 2) 371.39 ± 0.54 Å²; (charge state: 3) 435.97 ± 1.1 Å².
On to IGNSYFKEEK, for which the collision cross section (charge state: 2) was found to be 377.24 ± 0.91 Å² and the collision cross section (charge state: 3) is given as 453.77 ± 3.2 Å².
In turn, IGSLDNITHVPGGGNK gave a collision cross section (charge state: 3) of 470.46 ± 1.9 Å².
Turning to IHNAENIQPGEQKYEYK, the collision cross section runs as follows: (charge state: 2) 475.76 ± 2.4 Å²; (charge state: 3) 534.89 ± 9.6 Å².
The like results for IHPEGPPLK were, in that order, 335.79 ± 0.58 Å² and 438.33 ± 2 Å².
Consider IHVQSSSDSSDEPAEKR, for which the collision cross section (charge state: 2) worked out at 455.51 ± 2.8 Å² and the collision cross section (charge state: 3) worked out at 536.3 ± 1.4 Å².
As for IINEPTAAAIAYGLDKK, the collision cross section stood at 487.73 ± 3.8 Å² (charge state: 2) and 556.28 ± 2.3 Å² (charge state: 3).
Turning to IISSIEQKEENK, the collision cross section reads like this: (charge state: 2) 409.72 ± 2.2 Å²; (charge state: 3) 479.1 ± 6.7 Å².
In the same order, the values of ILDLKTGTVK are 361.56 ± 1.2 Å² and 442.8 ± 7.1 Å².
With INNFSADIKDSK, the collision cross section reads like this: (charge state: 2) 403.18 ± 2.5 Å²; (charge state: 3) 450.51 ± 4 Å².
Regarding IPAASAAAMNLASAR, the collision cross section came out at 397.84 ± 0.66 Å² (charge state: 2) and 496.43 ± 0.86 Å² (charge state: 3).
IPPTYQIR yielded a collision cross section (charge state: 2) of 332.62 ± 0.59 Å².
With IPQEKCILQTDVK, the collision cross section runs as follows: (charge state: 2) 428.77 ± 2.5 Å²; (charge state: 3) 470.55 ± 3.7 Å².
Where the note is “charge state: 3”, IQNGAQGIRFIYTR returned a collision cross section of 511.04 ± 0.58 Å².
For the sequence IQQELQTAKK, the collision cross section runs as follows: (charge state: 2) 374.48 ± 0.53 Å²; (charge state: 3) 429.26 ± 3.7 Å².
For IQTKAGEATVK, the collision cross section reads like this: (charge state: 2) 361.35 ± 0.94 Å²; (charge state: 3) 457.37 ± 4.1 Å².
The sequence IQTVPASHLQQGTASGSSK yielded a collision cross section (charge state: 3) of 490.25 ± 12 Å².
As for ISALQGKLSK, the collision cross section by setting is: (charge state: 2) 353.47 ± 1.4 Å²; (charge state: 3) 435.93 ± 5.2 Å².
ISEILLDHGAPIQAK registered a collision cross section (charge state: 2) of 447.46 ± 0.13 Å² and a collision cross section (charge state: 3) of 537.87 ± 1.7 Å².
Where the note is “charge state: 2”, ISPVEESEDVSNK showed a collision cross section of 399.42 ± 0.14 Å².
ISSNFSSIIAEKLR: the collision cross section (charge state: 2) came to 430.92 ± 3.1 Å² and the collision cross section (charge state: 3) is given as 511.25 ± 4.9 Å².
In the same order, the values of ITASLCDLKSR are 397.44 ± 4.9 Å² and 460.65 ± 3.9 Å².
Regarding ITESVAETAQTIK, the collision cross section (charge state: 2) is recorded as 394.65 ± 0.14 Å².
